Data as given in patent US20240342207, “MODIFIED NUCLEIC ACID COMPOSITIONS AND ASSOCIATED METHODS FOR TREATMENT OF PHENYLKETONURIA” (BOARD OF REGENTS, THE UNIVERSITY OF TEXAS SYSTEM, published 2024).
Numbering of substitutions follows the chain as printed.

What was measured:
Conditions in all cases: tags: His-tag, E. coli; stem-loop
[1] = target: T1, PAH R157N (Homo sapiens, UniProt P00439 P00439:1-452, R157N); test: EMSA; also decreased affinity in quantified assay
T1 sequence: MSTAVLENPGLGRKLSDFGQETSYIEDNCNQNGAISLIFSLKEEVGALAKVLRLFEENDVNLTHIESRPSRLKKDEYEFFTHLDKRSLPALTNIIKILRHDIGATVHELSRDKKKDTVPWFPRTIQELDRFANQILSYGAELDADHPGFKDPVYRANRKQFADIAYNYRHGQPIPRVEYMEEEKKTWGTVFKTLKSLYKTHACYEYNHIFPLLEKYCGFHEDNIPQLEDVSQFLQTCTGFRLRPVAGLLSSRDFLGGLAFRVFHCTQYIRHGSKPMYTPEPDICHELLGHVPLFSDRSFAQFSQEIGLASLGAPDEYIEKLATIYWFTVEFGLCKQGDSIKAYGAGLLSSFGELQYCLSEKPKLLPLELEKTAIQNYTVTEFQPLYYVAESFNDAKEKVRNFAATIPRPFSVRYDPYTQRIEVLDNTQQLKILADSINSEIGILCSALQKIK
Description: (§1) It was reasoned that supplementing lncRNAs might improve the catalytic activities of the PAH mutants, leading to reduced serum Phe concentrations and improved symptoms in patients with PKU. Scramble (Scr) and HULC mimics representing wild-type HULC nt. 181-201 and HULC A191G mutated sequences were designed for the following studies. 17 PAH mutants that were identified from patients with PKU and are known to affect the enzymatic activity of PAH (21, 22) were selected, and bacterially-expressed wild-type and mutant PAH (FIG. 10 and see FIG. S13A in Li et al. 2021) were collected. […] The denatured wild-type PAH proteins were included as a negative control.
(§2) RNA Electrophoretic Mobility Shift Assay (EMSA). The gel mobility shift assay was performed as previously described (42). Briefly, 500 ng recombinant His-tagged wild-type PAH or mutants were incubated with 0.035 μmol labeled probe in a RNA-protein binding buffer [(50 mM Tris-HCl 7.9, 10% glycerol, 100 mM KCl, 5 mM MgCl₂, 10 mM (3-ME, 0.1% NP40] for 30 min at 30° C. For cold RNA competition, 0.035 μmol radiolabeled RNA probes were first mixed with 7 μmol cold RNA competitors and then subjected to the gel shift assay.

[2] = target: T2, PAH TH63-64PN (Homo sapiens, UniProt P00439 P00439:1-452, T63P,H64N); test: EMSA; also decreased affinity in quantified assay
T2 sequence: T1 sequence with T63P, H64N, N157R
Description: as §1, §2

[3] = target: T3, PAH Y414C (Homo sapiens, UniProt P00439 P00439:1-452, Y414C); test: EMSA; one of 13 of 17 binding mutants (identity from p198 list)
T3 sequence: T1 sequence with N157R, Y414C
Description: as §1, §2

[4] = target: T4, PAH Y417H (Homo sapiens, UniProt P00439 P00439:1-452, Y417H); test: as above
T4 sequence: T1 sequence with N157R, Y417H
Description: as §1, §2

B1: HULC 181-201 mimic (ssRNA)
RNA: CAAAAUGCAUAUGUAUCUUUG
[1]
  binding result: no binding
[2]
  binding result: no binding
[3]
  binding result: binds
[4]
  binding result: binds
